Tests used:
[1] = target: SARS-CoV-2 spike receptor binding domain (SARS-CoV-2) (UniProt P0DTC2); assay: BLI
[2] = target: SARS-CoV-2 spike receptor binding domain (SARS-CoV-2) (UniProt P0DTC2)

Substance	Kd [1]	other [2]
LCB1 (designed binder)	< 1 nM	23.5 pM
LCB3 (designed binder)	< 1 nM	–
